According to US20140087995A1 (published 2014):
Values belong to the binder of their own block, whether it stands above or below them. Numbered stars: 1 amine (or outer) side, 2 acyl side, 3 side chain; on linkers, the order of the positions; unused ones are H or OH. Bridge positions count the residues as written; N and C are the ends. Side chains are listed from the residue outwards. Ends that are not written are not given here. * marks the point of attachment. C20 diacid = O=C(O)CCCCCCCCCCCCCCCCCCC(=O)*; γGlu = O=C(O)[C@H](CCC(=O)[*:2])N[*:1]

What was measured:
rat calcitonin receptor = molecular target: T1, rat calcitonin receptor (rat, UniProt P32214 25-516); assay: SPA competition binding, displacement of 125I-calcitonin from membranes of BHK tk'ts 13 cells transfected with rat calcitonin receptor (Assay VIII)
T1 construct: whole, on cells; Used as membranes prepared from the transfected cells (Assay VIII); also called rCTR; rat calcitonin (a) receptor
T1 sequence (looked up): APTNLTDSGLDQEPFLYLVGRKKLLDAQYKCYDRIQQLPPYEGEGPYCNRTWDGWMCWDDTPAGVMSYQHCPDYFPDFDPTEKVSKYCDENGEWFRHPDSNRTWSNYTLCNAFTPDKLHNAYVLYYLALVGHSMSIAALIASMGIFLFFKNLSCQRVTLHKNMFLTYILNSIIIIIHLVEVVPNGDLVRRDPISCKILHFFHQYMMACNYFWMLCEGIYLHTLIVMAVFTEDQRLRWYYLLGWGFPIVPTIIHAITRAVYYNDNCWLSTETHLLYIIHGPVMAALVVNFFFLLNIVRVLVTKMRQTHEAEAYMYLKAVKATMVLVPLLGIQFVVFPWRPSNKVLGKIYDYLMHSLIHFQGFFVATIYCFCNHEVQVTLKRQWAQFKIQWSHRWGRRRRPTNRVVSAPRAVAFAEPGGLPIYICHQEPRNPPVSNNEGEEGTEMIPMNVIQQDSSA

[1] = molecular target: T2, human calcitonin receptor (human, UniProt P30988 25-474); assay: cell-based or functional assay
T2 sequence (looked up): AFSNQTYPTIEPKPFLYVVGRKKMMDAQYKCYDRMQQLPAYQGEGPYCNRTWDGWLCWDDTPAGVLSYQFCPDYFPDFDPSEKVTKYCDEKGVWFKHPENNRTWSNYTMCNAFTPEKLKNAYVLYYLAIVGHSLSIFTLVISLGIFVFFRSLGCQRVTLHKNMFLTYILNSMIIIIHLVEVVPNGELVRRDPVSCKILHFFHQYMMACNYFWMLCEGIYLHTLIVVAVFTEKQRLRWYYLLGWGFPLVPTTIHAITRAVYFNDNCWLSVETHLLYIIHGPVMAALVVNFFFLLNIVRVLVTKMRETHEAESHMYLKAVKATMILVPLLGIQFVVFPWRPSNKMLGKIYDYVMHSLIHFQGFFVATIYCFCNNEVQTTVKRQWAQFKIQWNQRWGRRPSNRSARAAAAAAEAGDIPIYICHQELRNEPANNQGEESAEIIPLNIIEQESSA

IC50 (rat calcitonin receptor): 30.9 nM
B1: [Asp14,Arg17,Pro21,Pro27,Arg35]-h-amylin (peptide)
peptide: KCNTATCATQRLADFLRHSSPNFGAIPSSTNVGSRTY-NH2
modifications: disulfide 2-7

hCTR funct. EC50 (pM) [1]: 1730 pM
B2: N^-1-[(4S)-4-carboxy-4-(19-carboxynonadecanoylamino)butanoyl]-Gly[Arg1,His14,Arg17,Pro21,Pro27,His34]-h-amylin (peptide)
peptide: {C20 diacid-γGlu}-GRCNTATCATQRLAHFLRHSSPNFGAIPSSTNVGHNTY-NH2
modifications: disulfide 3-8
SMILES: CC[C@H](C)[C@H](NC(=O)[C@H](C)NC(=O)CNC(=O)[C@H](Cc1ccccc1)NC(=O)[C@H](CC(N)=O)NC(=O)[C@@H]1CCCN1C(=O)[C@H](CO)NC(=O)[C@H](CO)NC(=O)[C@H](Cc1c[nH]cn1)NC(=O)[C@H](CCCNC(=N)N)NC(=O)[C@H](CC(C)C)NC(=O)[C@H](Cc1ccccc1)NC(=O)[C@H](Cc1c[nH]cn1)NC(=O)[C@H](C)NC(=O)[C@H](CC(C)C)NC(=O)[C@H](CCCNC(=N)N)NC(=O)[C@H](CCC(N)=O)NC(=O)[C@@H](NC(=O)[C@H](C)NC(=O)[C@@H]1CSSC[C@H](NC(=O)[C@H](CCCNC(=N)N)NC(=O)CNC(=O)CC[C@H](NC(=O)CCCCCCCCCCCCCCCCCCC(=O)O)C(=O)O)C(=O)N[C@@H](CC(N)=O)C(=O)N[C@@H]([C@@H](C)O)C(=O)N[C@@H](C)C(=O)N[C@@H]([C@@H](C)O)C(=O)N1)[C@@H](C)O)C(=O)N1CCC[C@H]1C(=O)N[C@@H](CO)C(=O)N[C@@H](CO)C(=O)N[C@H](C(=O)N[C@@H](CC(N)=O)C(=O)N[C@H](C(=O)NCC(=O)N[C@@H](Cc1c[nH]cn1)C(=O)N[C@@H](CC(N)=O)C(=O)N[C@H](C(=O)N[C@@H](Cc1ccc(O)cc1)C(N)=O)[C@@H](C)O)C(C)C)[C@@H](C)O
notes: 38 residues; also called compound 100

hCTR funct. EC50 (pM) [1]: 537 pM
B3: N^-1-[(4S)-4-carboxy-4-(19-carboxynonadecanoylamino)butanoyl]-Gly[Arg1,Ala14,Arg17,Pro21,Pro27,His34]-h-amylin (peptide)
peptide: {C20 diacid-γGlu}-GRCNTATCATQRLAAFLRHSSPNFGAIPSSTNVGHNTY-NH2
modifications: disulfide 3-8
SMILES: CC[C@H](C)[C@H](NC(=O)[C@H](C)NC(=O)CNC(=O)[C@H](Cc1ccccc1)NC(=O)[C@H](CC(N)=O)NC(=O)[C@@H]1CCCN1C(=O)[C@H](CO)NC(=O)[C@H](CO)NC(=O)[C@H](Cc1c[nH]cn1)NC(=O)[C@H](CCCNC(=N)N)NC(=O)[C@H](CC(C)C)NC(=O)[C@H](Cc1ccccc1)NC(=O)[C@H](C)NC(=O)[C@H](C)NC(=O)[C@H](CC(C)C)NC(=O)[C@H](CCCNC(=N)N)NC(=O)[C@H](CCC(N)=O)NC(=O)[C@@H](NC(=O)[C@H](C)NC(=O)[C@@H]1CSSC[C@H](NC(=O)[C@H](CCCNC(=N)N)NC(=O)CNC(=O)CC[C@H](NC(=O)CCCCCCCCCCCCCCCCCCC(=O)O)C(=O)O)C(=O)N[C@@H](CC(N)=O)C(=O)N[C@@H]([C@@H](C)O)C(=O)N[C@@H](C)C(=O)N[C@@H]([C@@H](C)O)C(=O)N1)[C@@H](C)O)C(=O)N1CCC[C@H]1C(=O)N[C@@H](CO)C(=O)N[C@@H](CO)C(=O)N[C@H](C(=O)N[C@@H](CC(N)=O)C(=O)N[C@H](C(=O)NCC(=O)N[C@@H](Cc1c[nH]cn1)C(=O)N[C@@H](CC(N)=O)C(=O)N[C@H](C(=O)N[C@@H](Cc1ccc(O)cc1)C(N)=O)[C@@H](C)O)C(C)C)[C@@H](C)O
notes: 38 residues

hCTR funct. EC50 (pM) [1]: 2140 pM
B4: N^ε1-[(4S)-4-carboxy-4-[[(4S)-4-carboxy-4-(19-carboxynonadecanoylamino)butanoyl]amino]butanoyl]-[Glu14,Arg17,Pro21,Pro27,Pro34,Phe37]-h-amylin (peptide)
peptide: K([γGlu-γGlu-C20 diacid])CNTATCATQRLAEFLRHSSPNFGAIPSSTNVGPNTF-NH2
modifications: disulfide 2-7; N-terminus assumed
SMILES: CC[C@H](C)[C@H](NC(=O)[C@H](C)NC(=O)CNC(=O)[C@H](Cc1ccccc1)NC(=O)[C@H](CC(N)=O)NC(=O)[C@@H]1CCCN1C(=O)[C@H](CO)NC(=O)[C@H](CO)NC(=O)[C@H](Cc1c[nH]cn1)NC(=O)[C@H](CCCNC(=N)N)NC(=O)[C@H](CC(C)C)NC(=O)[C@H](Cc1ccccc1)NC(=O)[C@H](CCC(=O)O)NC(=O)[C@H](C)NC(=O)[C@H](CC(C)C)NC(=O)[C@H](CCCNC(=N)N)NC(=O)[C@H](CCC(N)=O)NC(=O)[C@@H](NC(=O)[C@H](C)NC(=O)[C@@H]1CSSC[C@H](NC(=O)[C@@H](N)CCCCNC(=O)CC[C@H](NC(=O)CC[C@H](NC(=O)CCCCCCCCCCCCCCCCCCC(=O)O)C(=O)O)C(=O)O)C(=O)N[C@@H](CC(N)=O)C(=O)N[C@@H]([C@@H](C)O)C(=O)N[C@@H](C)C(=O)N[C@@H]([C@@H](C)O)C(=O)N1)[C@@H](C)O)C(=O)N1CCC[C@H]1C(=O)N[C@@H](CO)C(=O)N[C@@H](CO)C(=O)N[C@H](C(=O)N[C@@H](CC(N)=O)C(=O)N[C@H](C(=O)NCC(=O)N1CCC[C@H]1C(=O)N[C@@H](CC(N)=O)C(=O)N[C@H](C(=O)N[C@@H](Cc1ccccc1)C(N)=O)[C@@H](C)O)C(C)C)[C@@H](C)O

hCTR funct. EC50 (pM) [1]: 887 pM
B5: N^ε1-[(4S)-4-carboxy-4-[[(4S)-4-carboxy-4-(19-carboxynonadecanoylamino)butanoyl]amino]butanoyl]-[Ser14,Arg17,Pro21,Pro27,Pro34,Glu35]-h-amylin (peptide)
peptide: K([γGlu-γGlu-C20 diacid])CNTATCATQRLASFLRHSSPNFGAIPSSTNVGPETY-NH2
modifications: disulfide 2-7; N-terminus assumed
SMILES: CC[C@H](C)[C@H](NC(=O)[C@H](C)NC(=O)CNC(=O)[C@H](Cc1ccccc1)NC(=O)[C@H](CC(N)=O)NC(=O)[C@@H]1CCCN1C(=O)[C@H](CO)NC(=O)[C@H](CO)NC(=O)[C@H](Cc1c[nH]cn1)NC(=O)[C@H](CCCNC(=N)N)NC(=O)[C@H](CC(C)C)NC(=O)[C@H](Cc1ccccc1)NC(=O)[C@H](CO)NC(=O)[C@H](C)NC(=O)[C@H](CC(C)C)NC(=O)[C@H](CCCNC(=N)N)NC(=O)[C@H](CCC(N)=O)NC(=O)[C@@H](NC(=O)[C@H](C)NC(=O)[C@@H]1CSSC[C@H](NC(=O)[C@@H](N)CCCCNC(=O)CC[C@H](NC(=O)CC[C@H](NC(=O)CCCCCCCCCCCCCCCCCCC(=O)O)C(=O)O)C(=O)O)C(=O)N[C@@H](CC(N)=O)C(=O)N[C@@H]([C@@H](C)O)C(=O)N[C@@H](C)C(=O)N[C@@H]([C@@H](C)O)C(=O)N1)[C@@H](C)O)C(=O)N1CCC[C@H]1C(=O)N[C@@H](CO)C(=O)N[C@@H](CO)C(=O)N[C@H](C(=O)N[C@@H](CC(N)=O)C(=O)N[C@H](C(=O)NCC(=O)N1CCC[C@H]1C(=O)N[C@@H](CCC(=O)O)C(=O)N[C@H](C(=O)N[C@@H](Cc1ccc(O)cc1)C(N)=O)[C@@H](C)O)C(C)C)[C@@H](C)O
notes: also called compound 120

hCTR funct. EC50 (pM) [1]: 2380 pM
B6: N^ε1-[(4S)-4-carboxy-4-[[(4S)-4-carboxy-4-(19-carboxynonadecanoylamino)butanoyl]amino]butanoyl]-[His14,Arg17,Pro21,Pro27]-h-amylin (peptide)
peptide: K([γGlu-γGlu-C20 diacid])CNTATCATQRLAHFLRHSSPNFGAIPSSTNVGSNTY-NH2
modifications: disulfide 2-7; N-terminus assumed
SMILES: CC[C@H](C)[C@H](NC(=O)[C@H](C)NC(=O)CNC(=O)[C@H](Cc1ccccc1)NC(=O)[C@H](CC(N)=O)NC(=O)[C@@H]1CCCN1C(=O)[C@H](CO)NC(=O)[C@H](CO)NC(=O)[C@H](Cc1c[nH]cn1)NC(=O)[C@H](CCCNC(=N)N)NC(=O)[C@H](CC(C)C)NC(=O)[C@H](Cc1ccccc1)NC(=O)[C@H](Cc1c[nH]cn1)NC(=O)[C@H](C)NC(=O)[C@H](CC(C)C)NC(=O)[C@H](CCCNC(=N)N)NC(=O)[C@H](CCC(N)=O)NC(=O)[C@@H](NC(=O)[C@H](C)NC(=O)[C@@H]1CSSC[C@H](NC(=O)[C@@H](N)CCCCNC(=O)CC[C@H](NC(=O)CC[C@H](NC(=O)CCCCCCCCCCCCCCCCCCC(=O)O)C(=O)O)C(=O)O)C(=O)N[C@@H](CC(N)=O)C(=O)N[C@@H]([C@@H](C)O)C(=O)N[C@@H](C)C(=O)N[C@@H]([C@@H](C)O)C(=O)N1)[C@@H](C)O)C(=O)N1CCC[C@H]1C(=O)N[C@@H](CO)C(=O)N[C@@H](CO)C(=O)N[C@H](C(=O)N[C@@H](CC(N)=O)C(=O)N[C@H](C(=O)NCC(=O)N[C@@H](CO)C(=O)N[C@@H](CC(N)=O)C(=O)N[C@H](C(=O)N[C@@H](Cc1ccc(O)cc1)C(N)=O)[C@@H](C)O)C(C)C)[C@@H](C)O
notes: also called compound 92
